Our source for the EC50 values is patent publication US20230051715A1 (MABWELL THERAPEUTICS, published 2023).

Assay [1] deals with T1, human C1s mutant M5 (K336G) (human, UniProt P09871 16-688).
T1 construct: The entry is the mutant itself
T1 sequence: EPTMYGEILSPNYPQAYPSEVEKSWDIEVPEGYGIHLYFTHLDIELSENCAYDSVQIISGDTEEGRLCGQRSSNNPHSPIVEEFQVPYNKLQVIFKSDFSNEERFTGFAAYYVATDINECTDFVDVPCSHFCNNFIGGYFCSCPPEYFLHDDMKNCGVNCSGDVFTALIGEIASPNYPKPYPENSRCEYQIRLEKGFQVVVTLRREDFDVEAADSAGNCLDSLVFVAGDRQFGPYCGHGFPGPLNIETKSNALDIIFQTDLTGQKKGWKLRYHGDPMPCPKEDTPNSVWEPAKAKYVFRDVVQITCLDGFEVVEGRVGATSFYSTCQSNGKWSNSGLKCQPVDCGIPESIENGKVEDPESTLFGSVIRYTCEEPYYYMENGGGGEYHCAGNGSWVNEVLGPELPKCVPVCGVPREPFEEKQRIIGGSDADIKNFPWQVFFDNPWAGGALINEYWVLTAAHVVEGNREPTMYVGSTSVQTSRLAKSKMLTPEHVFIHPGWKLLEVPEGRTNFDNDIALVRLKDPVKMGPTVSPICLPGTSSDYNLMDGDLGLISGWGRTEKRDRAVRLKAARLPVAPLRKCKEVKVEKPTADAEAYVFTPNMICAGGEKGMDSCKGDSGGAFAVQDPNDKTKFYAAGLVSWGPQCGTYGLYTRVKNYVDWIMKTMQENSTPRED
The experiment in a line: ELISA, plate coated with human C1s mutant M5: K336G, OD450nm. The procedure:
(§1) ELISA was carried out by first coating 96-well plates with 200 ng/well of full-length or truncated C1s proteins overnight. The next morning, plates were blocked with SuperBlock T20 blocking buffer (Thermo Scientific 37536) for 1 h with gentle shaking. Then, various concentrations of anti-C1s antibodies diluted in SuperBlock T20 blocking buffer were added to the plates and incubated for 1 h with gentle shaking. Mouse IgG (Sigma-Aldrich 15381) and human IgG1 (BioXCell BP0297) were used as negative controls. The plates were washed before incubating with HRP conjugated secondary antibodies diluted in SuperBlock T20 blocking buffer (goat anti-mouse IgG (H+L) cross-adsorbed secondary antibody HRP (Invitrogen G-21040) or goat anti-human IgG antibody, HRP conjugate (Millipore AP309P)) for 1 h with gentle shaking. At last, the plates were washed and color developed with ELISA liquid HRP substrate (Sigma-Aldrich), followed by stopping the reaction with addition of 1M H₂SO₄ in the same volume as the ELISA liquid substrate. Bound antibody was measured by absorbance at OD₄₅₀ₙₘ.
(§2) Binding of anti-C1s antibodies to mutants M1-M20 of human C1s was measured by ELISA as described in Example 4, and results are shown in FIGS. 6B-6U. […]
On the technique in general: An ELISA detects its analyte on a solid surface through an enzyme-linked reagent.

For assay [2], the target named is T2, human C1s mutant M9 (K336G, D343Y & E351A) (human, UniProt P09871 16-688).
T2 construct: The entry is the mutant itself
T2 sequence: T1 sequence with D343Y, E351A
The experiment in a line: ELISA, plate coated with human C1s mutant M9: K336G, D343Y, E351A, OD450nm; the curve reaches only OD450 about 0.7 at 1000 ng/ml. The procedure: as §1, §2

By EC50 is commonly meant the midpoint of the concentration-response curve. Read a high EC50 as a less potent agent.

Residue numbers refer to the chain shown, from its start.

B1: Anti-C1s antibody hz2-7(H1L2) (antibody, V domains shown)
VH: EVQLLESGGGLVQPGGSLRLSCAASGFTFSNYFMNWVRQAPGKGLEWVSEIRLKFTNYATHYADSVKGRFTISRDDSKSTLYLQMNSLRAEDTAVYYCTRDYGSRNGYFDYWGQGTLVTVSS
VL: DIVMTQTPLSLPVTPGEPASISCRSSKSLLHSNGNTFLYWFLQKPGQSPQLLIYRMSNLASGVPDRFSGSGSGTDFTLKISRVEAEDVGVYYCMQHLEYPYTFGGGTKLEIKR
notes: Humanized, human IgG1 / kappa; also called hz2-7(1L2)
For B1, the EC50 was found to be 0.015 µg/mL in assay [1] and 0.013 µg/mL in assay [2].
